Patent US20250195679A1, “ANTIBODY-DRUG CONJUGATE AND USE THEREOF” (SHANGHAI HUAOTA BIOPHARMACEUTICAL CO., LTD., priority 2022, published 2025)

T1: CD73 on the cell surface of Calu6 cells (Homo sapiens, UniProt P21589)
T1 construct: endogenous in cells; host or cells: Calu6
T1 sequence (P21589 27-549): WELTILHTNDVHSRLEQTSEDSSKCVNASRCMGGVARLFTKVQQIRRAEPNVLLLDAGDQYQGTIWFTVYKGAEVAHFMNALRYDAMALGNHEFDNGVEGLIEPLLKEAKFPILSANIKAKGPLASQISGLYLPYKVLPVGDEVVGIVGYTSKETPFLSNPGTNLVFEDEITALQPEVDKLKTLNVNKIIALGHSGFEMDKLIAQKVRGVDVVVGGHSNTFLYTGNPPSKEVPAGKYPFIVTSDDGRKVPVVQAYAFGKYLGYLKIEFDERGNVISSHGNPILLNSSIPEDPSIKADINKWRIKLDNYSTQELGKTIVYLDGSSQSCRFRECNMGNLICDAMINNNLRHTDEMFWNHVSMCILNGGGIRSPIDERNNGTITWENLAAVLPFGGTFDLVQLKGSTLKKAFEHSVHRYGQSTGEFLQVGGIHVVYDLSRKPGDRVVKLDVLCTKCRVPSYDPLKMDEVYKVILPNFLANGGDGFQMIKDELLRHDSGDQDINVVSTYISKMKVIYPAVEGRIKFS


What was measured:
[1] = biological target: T1, CD73 on the cell surface of Calu6 cells; assay: Induction of endocytosis of CD73 antigen on cell surface (Calu6 cells, flow cytometry); assay type: cell-based; conditions: Example 5, 1 μg/mL, 5 h, 37° C. vs 4° C.
Procedure: The antibody-drug conjugate 1 and the antibody-drug conjugate 2 prepared in Example 1 and the 900698 naked antibody were diluted to 1 μg/mL with a PBS solution, with 2 replicate wells set up for each concentration. Calu6 cells in the logarithmic growth phase were taken and prepared into a cell suspension at 2×10^5 cells/mL. The cell suspension was then added at 100 μL (about 20000 cells) per well to a 96-well U-bottom plate and centrifuged at 300 g for 3 min, and then the supernatant was discarded. Then, the diluted antigen-binding proteins were each added at 100 μL/well to resuspend the cells, and the mixture was mixed uniformly and incubated at 4° C. for 30 min. […] After the incubation was completed, the cells were washed twice and centrifuged at 300 g for 3 min, and the fluorescence intensity was detected by flow cytometry.
The endocytosis efficiency of monoclonal antibodies 900698 and 900725 was compared through an endocytosis assay, with the procedures as follows: Anti-CD73 antigen-binding proteins such as the CD73 positive control antibody BMS-986179, 900698, and 900725 were diluted to 1 μg/mL with a PBS solution, with 2 replicate wells set up for each concentration. […] After the incubation was completed, the cells were washed twice and centrifuged at 300 g for 3 min, and the fluorescence intensity was detected by flow cytometry. […]

[2] = test system: MDA-MB-231 human breast cancer cells; assay: MDA-MB-231 triple-negative breast cancer CDX mouse efficacy model (Example 8); assay type: in vivo, NPG mice; conditions: for inhibition of growth of MDA-MB-231 breast cancer: 2.5 and 5 mg/kg i.p. BIW, 8 doses, FIG. 8; for relation of anti-tumor effect to administration dose: 2.5 vs 5 mg/kg i.p. BIW; for inhibitory effect on tumor growth compared with 900698 and Oleclumab: antibodies at 5 mg/kg, i.p. BIW
Procedure: NPG mice were used to establish an MDA-MB-231 triple-negative breast cancer animal model for assaying the efficacy of the test antibodies. The MDA-MB-231 human breast cancer cells used in this example were incubated in an L-15 medium supplemented with 10% FBS in an incubator at 37° C. without CO2. Before continuous cell culturing for ten generations, about 5.0×10^6 MDA-MB-231 cells were suspended in 100 μL of PBS and then mixed uniformly with an equal volume of Matrigel. The mixture was then inoculated by subcutaneous injection into NPG humanized mice on the right side of the back near the axilla, with an inoculation volume of about 200 μL. The mice were anesthetized with 2%-5% isoflurane prior to the inoculation. On the day of inoculation, 1.0×10^7 PBMCs (100 μL) were injected via the tail vein. When the tumors grew to an average size of about 50-80 mm^3, the […] tumor-bearing mice were randomly divided into 7 groups of 6 based on tumor volume and body weight. […] Oleclumab is an anti-CD73 monoclonal antibody developed by AstraZeneca, currently in Phase 2 clinical trials. The amino acid sequence of the heavy chain of 900201 is as set forth in SEQ ID NO. 43, and the amino acid sequence of the light chain of 900201 is as set forth in SEQ ID NO. 44.

| Molecule | Endocytosis efficiency (%) [1] | inhibition of growth of MDA-MB-231 breast cancer [2] | relation of anti-tumor effect to administration dose [2] | inhibitory effect on tumor growth compared with 900698 and Oleclumab [2] |
| --- | --- | --- | --- | --- |
| Antibody-drug conjugate 1: 900698 antibody cysteine-conjugated to SN-38 via Mc-VC-PAB-DMEDA-PEG linker, DAR about 7.8 (conjugate) VH: QVQLVESGGGLVKPGGSLRLSCAASGFTFSKYAMSWIRQAPGKGLEWVAEISSGGGYINYADSVKGRFTISRDNAKNSLYLQMNSLRAEDTAVYYCARAIYYYGSSYNYYAMDYWGQGTTVTVSS VL: DIQMTQSPSSLSASVGDRVTITCRASQDVGTAEAWYQQKPGKAPKLLIYWASTRHTGVPSRFSGSGSGTDFTLTISSLQPEDFATYYCQQYSSYPLTFGQGTKLEIK | about 95% | significantly inhibit the growth | positively correlated with the administration dose | significantly superior |
| Antibody-drug conjugate 2: 900698 antibody cysteine-conjugated to SN-38 via MP2-VC-PAB-DMEDA-PEG linker, DAR about 7.8 (conjugate) VH: QVQLVESGGGLVKPGGSLRLSCAASGFTFSKYAMSWIRQAPGKGLEWVAEISSGGGYINYADSVKGRFTISRDNAKNSLYLQMNSLRAEDTAVYYCARAIYYYGSSYNYYAMDYWGQGTTVTVSS VL: DIQMTQSPSSLSASVGDRVTITCRASQDVGTAEAWYQQKPGKAPKLLIYWASTRHTGVPSRFSGSGSGTDFTLTISSLQPEDFATYYCQQYSSYPLTFGQGTKLEIK | about 95% | significantly inhibit the growth | positively correlated with the administration dose | significantly superior |
